Experimental data as given in patent publication US5770691A, “Discriminatory substrates for MMP hydrolysis” (Regents of the University of Minnesota, priority 1995, dated 1998).

Assays:
[1] = test system: T1, CCC[C@H](NC(=O)[C@H](CCC(=O)O)NC(=O)[C@@H](NC(=O)[C@@H]1CCCN1C(=O)[C@H](CCCCN)NC(=O)[C@@H]1CCCN1C(=O)[C@H](CCCNC(=N)N)NC(=O)Cc1cc(=O)oc2cc(OC)ccc12)C(C)C)C(=O)N[C@@H](Cc1c[nH]c2ccccc12)C(=O)N[C@@H](CCCNC(=N)N)C(=O)N[C@@H](CCCCNc1ccc([N+](=O)[O-])cc1[N+](=O)[O-])C(N)=O; assay: Fluorometric hydrolysis of synthetic Mca/Lys(Dnp) substrates by MMP-3; assay type: biochemical, human
T1 construct: made in house; host or cells: native secreted protein purified from culture medium of human rheumatoid synovial cells
Source text: (§1) All MMPs were purified in zymogen form. ProMMP-1 (Suzuki et al., Biochem., 29, 10261 (1990)), proMMP-2 (Okada et al., Eur. J. Biochem., 194, 721 (1990)), and proMMP-3 (Ito et al., Arch. Biochem. Biophys., 267, 211 (1988)) were purified from the culture medium of human rheumatoid synovial cells stimulated with rabbit macrophage-conditioned medium. ProMMP-9 was purified from the culture medium of HT-1080 cells as described in Morodomi et al., Biochem. J., 285, 603 (1992). ProMMP-2 and proMMP-9 were activated by reacting with 1 mM 4-aminophenylmercuric acetate at 37° C. for 45 minutes and 32 hours, respectively. ProMMP-1 was activated by reacting with 1 mM 4-aminophenylmercuric acetate and an equimolar amount of MMP-3 at 37° C. for 6 hours. After activation, MMP-3 was completely removed from MMP-1 by affinity chromatography using an anti-MMP-3 IgG Affi-Gel 10 column. The resin, Affi-Gel 10 (Biorad, Emoryville, Calif.), was coupled to anti-MMP-3 IgG (Okada et al., Annals of Rheumat. Dis., 48, 645 (1989)) per the manufacturer's protocol. Pro-MMP-3 was activated by reacting with 5 μg/mL chymotrypsin at 37° C. for 2 hours. Chymotrypsin was inactivated with 2 mM diisopropylfluorophosphate. The amounts of active MMP-1, MMP-2, and MMP-3 were determined by titration with tissue inhibitor of metalloproteinase-1(TIMP1) over a concentration range of 0.1-3 μg/mL, while the amount of active MMP-9 was determined by titration with TIMP-2 (0.1-3 μg/mL). TIMP-1 was isolated from the medium of HT-1080 cells as described in Morodomi et al., Biochem J., 285, 603 (1992).
(§2) Substrates were prepared as 10 mM stock solutions in dimethylsulfoxide (DMSO). Fluorescent assays were performed at λex =325 nm and λem =393 nm, which should encounter no interference from Trp residues, using a Hitachi fluorescence spectrophotometer F-3010. Initial total hydrolysis assays were run at a substrate concentration of […] to avoid filtering effects. The change in fluorescence at this concentration was 110 based on total hydrolysis of 1 μM substrate. A typical assay was carried out by incubating 100 μL of various concentrations of a substrate with 10 μL of an enzyme solution (2-20 nM) in 50 mM Tris-HCl, pH 7.5, 0.15M NaCl, 10 mM CaCl2, 0.05% Brij 35, 0.02% NaN3. The reaction was stopped by addition of 900 μl of 3% (v/v) glacial acetic acid. MMP-3 activity at pH 6.0 was measured in 50 mM sodium acetate buffer, pH 6.0, instead of Tris-HCl buffer. The amount of substrate hydrolysis was calculated based on the fluorescence values of the Mca-Arg-Pro-Lys-Pro-Gln standard solution after substraction of the reaction blank value (stopping solution added before the enzyme). Individual kinetic parameters (kcat and KM) were determined over a substrate concentration range of 2.5-75 μM and calculated by double reciprocal plots.

[2] = test system: T2, COc1ccc2c(CC(=O)N3CCC[C@H]3C(=O)N[C@@H](CCCCN)C(=O)N3CCC[C@H]3C(=O)N[C@@H](CCC(N)=O)C(=O)N[C@@H](CCC(N)=O)C(=O)N[C@@H](Cc3ccccc3)C(=O)N[C@@H](Cc3ccccc3)C(=O)NCC(=O)N[C@@H](CC(C)C)C(=O)N[C@@H](CCCCNc3ccc([N+](=O)[O-])cc3[N+](=O)[O-])C(=O)NCC(=O)O)cc(=O)oc2c1; assay: as above; assay type: biochemical, human; conditions: other: MMP-3, 37° C., pH 7.5; 37.0 °C
T2 construct: made in house; host or cells: native secreted protein purified from culture medium of human rheumatoid synovial cells
Source text: as §1, §2

[3] = test system: T3, CCC[C@H](NC(=O)[C@H](C)NC(=O)[C@H](Cc1ccc(O)cc1)NC(=O)[C@@H]1CCCN1C(=O)[C@H](CCCCN)NC(=O)[C@@H]1CCCN1C(=O)[C@H](CCCNC(=N)N)NC(=O)Cc1cc(=O)oc2cc(OC)ccc12)C(=O)N[C@@H](Cc1c[nH]c2ccccc12)C(=O)N[C@@H](CCSC)C(=O)N[C@@H](CCCCNc1ccc([N+](=O)[O-])cc1[N+](=O)[O-])C(N)=O; assay: as above; assay type: biochemical, human; conditions: other: MMP-3, 37° C., pH 7.5; 37.0 °C
T3 construct: made in house; host or cells: native secreted protein purified from culture medium of human rheumatoid synovial cells
Source text: as §1, §2

[4] = test system: T4, CCC[C@H](NC(=O)[C@H](C)NC(=O)[C@H](Cc1ccc(O)cc1)NC(=O)[C@@H]1CCCN1C(=O)[C@H](CCCCN)NC(=O)[C@@H]1CCCN1C(=O)[C@H](CCCNC(=N)N)NC(=O)Cc1cc(=O)oc2cc(OC)ccc12)C(=O)N[C@@H](Cc1c[nH]c2ccccc12)C(=O)N[C@@H](CCSC)C(=O)N[C@@H](CCCCNc1ccc([N+](=O)[O-])cc1[N+](=O)[O-])C(N)=O; assay: Fluorometric hydrolysis of synthetic Mca/Lys(Dnp) substrates by MMP-9; assay type: biochemical; conditions: other: MMP-9, 37° C., pH 7.5
T4 construct: made in house; host or cells: native secreted protein purified from culture medium of HT-1080 cells
Source text: as §1, §2

[5] = test system: T5, CCC[C@H](NC(=O)[C@H](CCC(=O)O)NC(=O)[C@@H](NC(=O)[C@@H]1CCCN1C(=O)[C@H](CCCCN)NC(=O)[C@@H]1CCCN1C(=O)[C@H](CCCNC(=N)N)NC(=O)Cc1cc(=O)oc2cc(OC)ccc12)C(C)C)C(=O)N[C@@H](Cc1c[nH]c2ccccc12)C(=O)N[C@@H](CCCNC(=N)N)C(=O)N[C@@H](CCCCNc1ccc([N+](=O)[O-])cc1[N+](=O)[O-])C(N)=O; assay: as above; assay type: biochemical; conditions: other: MMP-9, 37° C., pH 7.5
T5 construct: made in house; host or cells: native secreted protein purified from culture medium of HT-1080 cells
Source text: as §1, §2

[6] = test system: T6, COc1ccc2c(CC(=O)N3CCC[C@H]3C(=O)N[C@@H](CCCCN)C(=O)N3CCC[C@H]3C(=O)N[C@@H](CCC(N)=O)C(=O)N[C@@H](CCC(N)=O)C(=O)N[C@@H](Cc3ccccc3)C(=O)N[C@@H](Cc3ccccc3)C(=O)NCC(=O)N[C@@H](CC(C)C)C(=O)N[C@@H](CCCCNc3ccc([N+](=O)[O-])cc3[N+](=O)[O-])C(=O)NCC(=O)O)cc(=O)oc2c1; assay: as above; assay type: biochemical; conditions: other: MMP-9, 37° C., pH 7.5
T6 construct: made in house; host or cells: native secreted protein purified from culture medium of HT-1080 cells
Source text: as §1, §2

[7] = other: MMP-3, 25° C., pH 7.5, 25.0 °C
[8] = other: MMP-3, 37° C., pH 7.5, 37.0 °C
[9] = other: MMP-3, pH 6.0 (50 mM sodium acetate buffer), 37° C., pH 6.0, 37.0 °C

Chain of MMP-9 (Homo sapiens) (chain, as listed by the source): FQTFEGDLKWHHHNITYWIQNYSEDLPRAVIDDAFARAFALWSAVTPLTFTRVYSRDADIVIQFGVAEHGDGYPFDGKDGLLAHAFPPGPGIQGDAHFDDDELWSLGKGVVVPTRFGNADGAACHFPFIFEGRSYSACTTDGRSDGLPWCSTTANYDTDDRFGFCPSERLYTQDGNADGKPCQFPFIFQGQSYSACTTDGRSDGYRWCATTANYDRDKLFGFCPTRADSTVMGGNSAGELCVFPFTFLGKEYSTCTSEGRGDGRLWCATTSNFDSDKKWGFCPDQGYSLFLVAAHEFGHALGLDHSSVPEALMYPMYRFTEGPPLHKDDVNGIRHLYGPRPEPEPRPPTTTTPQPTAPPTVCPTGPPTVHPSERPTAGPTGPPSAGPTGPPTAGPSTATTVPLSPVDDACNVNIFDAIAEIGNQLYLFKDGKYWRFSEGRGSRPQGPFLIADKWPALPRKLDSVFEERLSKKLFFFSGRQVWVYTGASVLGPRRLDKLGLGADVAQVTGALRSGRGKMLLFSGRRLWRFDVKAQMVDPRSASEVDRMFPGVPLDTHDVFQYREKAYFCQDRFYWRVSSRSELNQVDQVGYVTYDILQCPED
Chain of MMP-3 (Homo sapiens) (chain, as listed by the source): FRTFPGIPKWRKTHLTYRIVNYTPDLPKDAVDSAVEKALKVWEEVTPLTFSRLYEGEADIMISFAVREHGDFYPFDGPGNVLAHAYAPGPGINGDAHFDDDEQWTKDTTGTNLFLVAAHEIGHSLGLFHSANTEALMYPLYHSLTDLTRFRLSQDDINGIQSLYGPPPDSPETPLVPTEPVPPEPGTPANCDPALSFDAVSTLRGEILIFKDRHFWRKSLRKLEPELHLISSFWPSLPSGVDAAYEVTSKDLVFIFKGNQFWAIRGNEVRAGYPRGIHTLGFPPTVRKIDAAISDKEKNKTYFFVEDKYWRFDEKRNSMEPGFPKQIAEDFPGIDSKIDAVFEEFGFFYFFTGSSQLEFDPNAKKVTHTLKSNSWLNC

MMP-3 (Homo sapiens)
Km [1, 7]: 20 µM
kcat [1, 7]: 1.31 S^-1
kcat/Km [1, 7]: 65,700 S^-1 M^-1
Km [1, 8]: 25 µM
kcat [1, 8]: 5.40 S^-1
kcat/Km [1, 8]: 218,000 S^-1 M^-1
Km [1, 9]: 7.5 µM
kcat [1, 9]: 2.20 S^-1
kcat/Km [1, 9]: 302,000 S^-1 M^-1
Km [2]: 50 µM
kcat [2]: 0.53 S^-1
kcat/Km [2]: 10,900 S^-1 M^-1
Km [3]: 66 µM
kcat [3]: 3.95 S^-1
kcat/Km [3]: 59,400 S^-1 M^-1

MMP-9 (Homo sapiens)
Km [4]: 25 µM
kcat [4]: 1.38 S^-1
kcat/Km [4]: 55,300 S^-1 M^-1
Km [5]: 28 µM
kcat [5]: 0.282 S^-1
kcat/Km [5]: 10,100 S^-1 M^-1
Km [6]: 45 µM
kcat [6]: 0.18 S^-1
kcat/Km [6]: 4,000 S^-1 M^-1
